Data taken from patent US6855515B1, “Autoantigenic fragments, methods and assays” (Merck & Co., Inc., priority 1998, dated 2005).

B1: Histidyl tRNA synthetase (Jo-1): autoantigen targeted in autoimmune myositis (protein)
chain: AERAALEELVKLQGERVRGLKQQKASAELIEEEVAKLLKLKAQLGPDESKQKFVLKTPKGTRDYSPRQMAVREKVFDVIIRCFKRHGAEVIDTPVFELKETLMGKYGEDSKLIYDLKDQGGELLSLRYDLTVPFARYLAMNKLTNIKRYHIAKVYRRDNPAMTRGRYREFYQCDFDIAGNFDPMIPDAECLKIMCEILSSLQIGDFLVKVNDRRILDGMFAICGVSDSKFRTICSSVDKLDKVSWEEVKNEMVGEKGLAPEVADRIGDYVQQHGGVSLVEQLLQDPKLSQNKQALEGLGDLKLLFEYLTLFGIDDKISFDLSLARGLDYYTGVIYEAVLLQTPAQAGEEPLGVGSVAAGGRYDGLVGMFDPKGRKVPCVGLSIGVERIFSIVEQRLEALEEKIRTTETQVLVASAQKKLLEERLKLVSELWDAGIKAELLYKKNPKLLNQLQYCEEAGIPLVAIIGEQELKDGVIKLRSVTSREEVDVRREDLVEEIKRRTGQPLCIC
B2: NOR-90: autoantigen (protein, UniProt P17480 1-764, looked up)
Nucleolar transcription …: MNGEADCPTDLEMAAPKGQDRWSQEDMLTLLECMKNNLPSNDSSKFKTTESHMDWEKVAFKDFSGDMCKLKWVEISNEVRKFRTLTELILDAQEHVKNPYKGKKLKKHPDFPKKPLTPYFRFFMEKRAKYAKLHPEMSNLDLTKILSKKYKELPEKKKMKYIQDFQREKQEFERNLARFREDHPDLIQNAKKSDIPEKPKTPQQLWYTHEKKVYLKVRPDATTKEVKDSLGKQWSQLSDKKRLKWIHKALEQRKEYEEIMRDYIQKHPELNISEEGITKSTLTKAERQLKDKFDGRPTKPPPNSYSLYCAELMANMKDVPSTERMVLCSQQWKLLSQKEKDAYHKKCDQKKKDYEVELLRFLESLPEEEQQRVLGEEKMLNINKKQATSPASKKPAQEGGKGGSEKPKRPVSAMFIFSEEKRRQLQEERPELSESELTRLLARMWNDLSEKKKAKYKAREAALKAQSERKPGGEREERGKLPESPKRAEEIWQQSVIGDYLARFKNDRVKALKAMEMTWNNMEKKEKLMWIKKAAEDQKRYERELSEMRAPPAATNSSKKMKFQGEPKKPPMNGYQKFSQELLSNGELNHLPLKERMVEIGSRWQRISQSQKEHYKKLAEEQQKQYKVHLDLWVKSLSPQDRAAYKEYISNKRKSMTKLRGPNPKSSRTTLQSKSESEEDDEEDEDDEDEDEEEEDDENGDSSEDGGDSSESSSEDESEDGDENEEDDEDEDDDEDDDEDEDNESEGSSSSSSSSGDSSDSDSN
B3: La: autoantigen (protein, UniProt P05455 1-408, looked up)
Lupus La protein: MAENGDNEKMAALEAKICHQIEYYFGDFNLPRDKFLKEQIKLDEGWVPLEIMIKFNRLNRLTTDFNVIVEALSKSKAELMEISEDKTKIRRSPSKPLPEVTDEYKNDVKNRSVYIKGFPTDATLDDIKEWLEDKGQVLNIQMRRTLHKAFKGSIFVVFDSIESAKKFVETPGQKYKETDLLILFKDDYFAKKNEERKQNKVEAKLRAKQEQEAKQKLEEDAEMKSLEEKIGCLLKFSGDLDDQTCREDLHILFSNHGEIKWIDFVRGAKEGIILFKEKAKEALGKAKDANNGNLQLRNKEVTWEVLEGEVEKEALKKIIEDQQESLNKWKSKGRRFKGKGKGNKAAQPGSGKGKVQFQGKKTKFASDDEHDEHDENGATGPVKRAREETDKEEPASKQQKTENGAGDQ
B4: CENP B: autoantigen (protein)
chain: GPKRRQLTFREKSRIIQEVEENPDLRKGEIARRFNIPPSTLSTILKNKRAILASERKYGVASTCRKTNKLSPYDKLEGLLIAWFQQIRAAGLPVKGIILKEKALRIAEELGMDDFTASNGWLDRFRRRHGVVSCSGVARARARNAAPRTPAAPASPAAVPSEGSGGSTTGWRAREEQPPSVAEGYASQDVFSATETSLWYDFLPDQAAGLCGGDGRPRQATQRLSVLLCANADGSEKLPPLVAGKSAKPRAGQAGLPCDYTANSKGGVTTQALAKYLKALDTRMAAESRRVLLLAGRLAAQSLDTSGLRHVQLAFFPPGTVHPLERGVVQQVKGHYRQAMLLKAMAALEGQDPSGLQLGLTEALHFVAAAWQAVEPSDIAACFREAGFGGGPNATITTSLKSEGEEEEEEEEEEEEEEGEGEEEEEEGEEEEEEGGEGEELGEEEEVEEEGDVDSDEEEEEDEESSSEGLEAEDWAQGVVEAGGSFGAYGAQEEAQCPTLHFLEGGEDSDSDSEEEDDEEEDDEDEDDDDDEEDGDEVPVPSFGEAMAYFAMVKRYLTSFPIDDRVQSHILHLEHDLVHVTRKNHARQAGVRGLGHQS
B5: Isoleucyl tRNA synthetase (O.J.): autoantigen targeted in autoimmune myositis (protein)
chain: MLQQVPENINFPAEEEKILEFWTEFNCFQECLKQSKHKPKFTFYDGPPFATGLPHYGHILAGTIKDIVTRYAHQSGFHVDRRFGWDCHGLPVEYEIDKTLGIRGPEDVAKMGITEYNNQCRAIVMRYSAEWKSTVSRLGRWIDFDNDYKTLYPQFMESVWWVFKQLYDKGLVYRGVKVMPFSTACNTPLSNFESHQNYKDVQDPSVFVTFPLEEDETVSLVAWTTTPWTLPSNLAVCVNPEMQYVKIKDVARGRLLILMEARLSALYKLESDYEILERFPGAYLKGKKYRPLFDYFLKCKENGAFTVLVDNYVKEEEGTGVVHQAPYFGAEDYRVCMDFNIIRKDSLPVCPVDASGCFTTEVTDFAGQYVKDADKSIIRTLKEQGRLLVATTFTHSYPFCWRSDTPLIYKAVPSWFVRVENMVDQLLRNNDLCYWVPELVREKRFGNWLKDARDWTISRNRYWGTPIPLWVSDDFEEVVCIGSVAELEELSGAKISDLHRESVDHLTIPSRCGKGSLHRISEVFDCWFESGSMPYAQVHYPFENKREFEDAFPADFIAEGIDQTRGWFYTLLVLATALFGQPPFKNVIVNGLVLASDGQKMSKRKKNYPDPVSIIQKYGADALRLYLINSPVVRAENLRFKEEGVRDVLKDVLLPWYNAYRFLIQNVLRLQKEEEIEFLYNENTVRESPNITDRWILSFMQSLIGFFETEMAAYRLYTVVPRLVKFVDILTNWYVRMNRRRLKGENGMEDCVMALETLFSVLLSLCRLMAPYTPFLTELMYQNLKVLIDPVSVQDKDTLSIHYLMLPRVREELIDKKTESAVSQMQSVIELGRVIRDRKTIPIKYPLKEIVVIHQDPEALKDIKSLEKYIIEELNVRKVTLSTDKNKYGIRLRAEPDHMVLGKRLKGAFKAVMTSIKQLSSEELEQFQKTGTIVVEGHELHDEDIRLMYTFDQATGGTAQFEAHSDAQALVLLDVTPDQSMVDEGMAREVINRIQKLRKKCNLVPTDEITVYYKAKSEGTYLNSVIESHTEFIFTTIKAPLKPYPVSPSDKVLIQEKTQLKGSELEITLTRGSSLPGPACAYVNLNICANGSEQGGVLLLENPKGDNRLDLLKLKSVVTSIFGVKNTELAVFHDETEIQNQTDLLSLSGKTLCVTAGSAPSLINSSSTLLCQYINLQLLNAKPQECLMGTVGTLLLENPLGQNGLTHQGLLYEAAKVFGLRSRKLKLFLNETQTQEITEDIPVKTLNMKTVYVSVLPTTADF
B6: Fibrilliarin: autoantigen (protein)
chain: MKPGFSPRGGGFGGRGGFGDRGGRGGRGGFGGGRGRGGGFRGRGRGGGGGGGGGGGGGRGGGGFHSGGNRGRGRGGKRGNQSGKNVMVEPHRHEGVFICRGKEDALVTKNLVPGESVYGEKRVSISEGDDKIEYRAWNPFRSKLAAAILGGVDQIHIKPGAKVLYLGAASGTTVSHVSDIVGPDGLVYAVEFSHRSGRDLINLAKKRTNIIPVIEDARHPHKYRMLIAMVDVIFADVAQPDQTRIVALNAHTFLRNGGHFVISIKANCIDSTASAEAVFASEVKKMQQENMKPQEQLTLEPYERDHAVVVGVYRPPPKVKN
B7: Alanyl tRNA synthetase (PL-12): autoantigen targeted in autoimmune myositis (protein)
chain: MDSTLTASEIRQRFIDFFKRNEHTYVHSSATIPLDDPTLLFANAGMNQFKPIFLNTIDPSHPMAKLSRAANTQKCIRAGGKHNDLDDVGKDVYHHTFFEMLGSWSFGDYFKELACKMALELLTQEFGIPIERLYVTYFGGDEAAGLEADLECKQIWQNLGLDDTKILPGNMKDNFWEMGDTGPCGPCSEIHYDRIGGRDAAHLVNQDDPNVLEIWNLVFIQYNREADGILKPLPKKSIDTGMGLERLVSVLQNKMSNYDTDLFVPYFEAIQKGTGARPYTGKVGAEDADGIDMAYRVLADHARTITVALADGGRPDNTGRGYVLRRILRRAVRYAHEKLNASRGFFATLVDVVVQSLGDAFPELKKDPDMVKDIINEEEVQFLKTLSRGRRILDRKIQSLGDSKTIPGDTAWLLYDTYGFPVDLTGLIAEEKGLVVDMDGFEEERKLAQLKSQGKGAGGEDLIMLDIYAIEELRARGLEVTDDSPKYNYHLDSSGSYVFENTVATVMALRREKMFVEEVSTGQECGVVLDKTCFYAEQGGQIYDEGYLVKVDDSSEDKTEFTVKNAQVRGGYVLHIGTIYGDLKVGDQVWLFIDEPRRRPIMSNHTATHILNFALRSVLGEADQKGSLVAPDRLRFDFTAKGAMSTQQIKKAEEIANEMIEAAKAVYTQDCPLAAAKAIQGLRAVFDETYPDPVRVVSIGVPVSELLDDPSGPAGSLTSVEFCGGTHLRNSSHAGAFVIVTEEAIAKGIRRIVAVTGAEAQKALRKAESLKKCLSVMEAKVKAQTAPNKDVQREIADLGEALATAVIPQWQKDELRETLKSLKKVMDDLDRASKADVQKRVLEKTKQFIDSNPNQPLVILEMESGASAKALNEALKLFKMHSPQTSAMLFTVDNEAGKITCLCQVPQNAANRGLKASEWVQQVSGLMDGKGGGKDVSAQATGKNVGCLQEALQLATSFAQLRLGDVKN

Target: T1, granzyme B (Homo sapiens, UniProt P10144)
T1 construct: Some of these preparations were used for the further purification of granzyme B (Tschopp, 1994); endogenous in cells; host or cells: YT cells (human NK cell line), cytoplasmic granules
T1 sequence (P10144 21-247): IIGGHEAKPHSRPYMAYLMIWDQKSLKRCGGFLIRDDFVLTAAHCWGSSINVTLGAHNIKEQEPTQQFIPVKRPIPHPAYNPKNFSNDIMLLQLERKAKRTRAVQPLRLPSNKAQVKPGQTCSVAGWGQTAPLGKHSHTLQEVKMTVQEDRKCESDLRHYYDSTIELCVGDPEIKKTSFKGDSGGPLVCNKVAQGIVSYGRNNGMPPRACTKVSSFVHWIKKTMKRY
Test: Susceptibility of autoantigens to cleavage by purified granzyme B (HeLa lysate immunoblot or immunoprecipitates)
Assay type: biochemical
Settings: in vitro
Description: To determine whether susceptibility to direct cleavage by granzyme B was an isolated feature of PARP, NuMA and DNA-PKcs shown above, or whether it was a more general feature of autoantigens, a variety of well-defined autoantigens selected from across the spectrum of systemic autoimmune diseases were tested for susceptibility to cleavage by purified granzyume B. The efficiency of cleavage of the substrates by purified granzyme B was also noted (Table 3). Initially, a series of autoantibodies of well-defined specificity were used to immunoblot lysates of HeLa cells that had been incubated in vitro with or without granzyme B. Lysates were pre-treated with iodoacetamide (IAA) to prevent interference by endogenous caspase activity.
To perform these studies, HeLa cells were radiolabeled with [^35S] methionine/cysteine, and proteins were immunoprecipitated using human autoantibodies. Protein A-agarose beads containing washed precipitated proteins were resuspended in buffer supporting the activity of granzyme B, and incubated in the absence or presence of added purified granzyme B. Reaction products were visualized using SDS-PAGE and fluorography. To confirm the validity of this approach, several different autoantigens known to be cleaved by granzyme B, as well as several autoantigens and non-autoantigens that are not cleaved by granzyme B, were tested. Using autoantibodies that both immunoblot and immunprecipitate, the cleavage profiles obtained using granzyme B to cleave molecules in lysates (followed by detection with immunoblotting), and after immunoprecipitation (from [^35S]methionine-labeled HeLa lysate) were compared. Identical results were obtained using these 2 methods for cleaved autoantigens (topoisomerase-1, Mi-2, RNA polymerase II large subunit, Ku-70, PARP, and NOR-90), uncleaved autoantigens (Ku-80, Ro 60k), and control substrates (β-tubulin, vinculin). […] Of note, all these additional autoantigens (with the exception of RNA polymerase I) are targeted in autoimmune myositis. However, two other tRNA synthetases (threonyl tRNA synthetase and glycyl tRNA synthetase) that are also autoantigens in autoimmune myositis, were not cleaved using this approach.

Molecule	susceptibility to cleavage by granzyme B
B1	cleaved
B2	efficiently cleaved
B3	efficiently cleaved
B4	efficiently cleaved
B5	cleaved
B6	efficiently cleaved
B7	cleaved
